# Patent publication US20230192878A1, “METHODS, THERAPIES AND USES FOR TREATING CANCER” (PFIZER INC., priority 2020, published 2023)
# Key:
# Format in all cases: cell-based
# Raji = experiment: Cell surface BCMA expression after GSI, time course and washout, lymphoma cells
# Procedure: Lymphoma cells (Raji) were seeded in a 6-well plate at 800,000 cells/2 ml/well with GSI diluted at 1 μM in RPMI medium (with 0.1% DMSO). Cells were collected to evaluate cell surface BCMA expression at baseline, and then at 3 hours, 6 hours and 24 hours after addition of the GSI. After 24 hours of incubation with the GSI, cells were washed twice in PBS and re-plated in fresh 6-well plates. […] At the indicated time points, samples were stained with a ZombieNIR Viability dye (Biolegend) for 20 minutes at room temperature at 1 in 500 dilution in PBS, washed with PBS+2% FBS and further stained with anti-BCMA PE-labelled antibody diluted in PBS+2% FBS for 30 minutes at 4° C. Samples were acquired on BD Flow Cytometer and analyzed using FlowJo software. Dead cells were removed from the analysis by gating on ZombieNIR negative population. BCMA mean fluorescence intensity (MFI) was plotted as a histogram.
# OPM2-luc = experiment: BCMAxCD3 bispecific mediated cell killing with human T cells, with or without GSI; conditions: for OPM2 cell viability (% control): 60 hours, with or without 1 μM GSI
# Procedure: (§1) CD3^+ T cells from PBMCs (Stem Cell Technologies) were negatively selected using EasySep Human T cell enrichment kit (Stem Cell Technologies). Multiple myeloma cells expressing luciferase (MM.1S-luc, OPM2-luc, H929-luc, Molp8-luc, RPM18226-luc) were treated with 1 μM GSI […]. After 24 hours, cells were seeded with 50,000 CD3^+ pan T cells in a clear 96-well V-bottom plate. Cells were further treated with a range of BCMAxCD3 bispecific antibody concentrations with or without 1 μM GSI. 60 hours after treatment, luciferase activity in treated cells was analyzed using NeoLite reagent kit (Perkin Elmer) and acquired on VictorX multimode plate reader (Perkin Elmer). Cell viability was calculated by dividing luciferase activity of treated cells over luciferase activity of untreated control (no BCMAxCD3 bispecific antibody added).
# RPMI8226 = experiment: as above; conditions: for RPMI8226 cell viability (% control): 60 hours, with or without 1 μM GSI
# Procedure: as §1
# MM.1S-luc = experiment: as above; conditions: for MM.1S cell viability (% control): 60 hours, with or without 1 μM GSI
# Procedure: as §1
molecule,measurement,setting,value
"CCC[C@H](N[C@H]1CCc2cc(F)cc(F)c2C1)C(=O)Nc1cn(C(C)(C)CNCC(C)(C)C)cn1 [GSI, nirogacestat]",BCMA (-PE) MFI,"Raji; GSI 1 μM for 24 h, 3 h post wash",1619
same,BCMA (-PE) MFI,"Raji; GSI 1 μM for 24 h, 5 h post wash",1822
same,BCMA (-PE) MFI,"Raji; GSI 1 μM for 24 h, 24 h post wash",795
same,BCMA (-PE) MFI,"Raji; GSI 1 μM, 3 h after GSI",699
same,BCMA (-PE) MFI,"Raji; GSI 1 μM, 6 h after GSI",735
same,BCMA (-PE) MFI,"Raji; GSI 1 μM, 24 h after GSI",1506
same,Enhancement of BCMAxCD3 bispecific antibody mediated cell killing by GSI,"OPM2-luc; OPM2, 1 μM GSI",21 ×
same,Enhancement of BCMAxCD3 bispecific antibody mediated cell killing by GSI,"RPMI8226; RPMI8226, 1 μM GSI",24 ×
same,Enhancement of BCMAxCD3 bispecific antibody mediated cell killing by GSI,"MM.1S-luc; MM.1S, 1 μM GSI",21 ×
PF-06863135: heterodimeric humanized full-length bispecific antibody with one BCMA binding arm and one CD3 binding arm,OPM2 cell viability (% control),OPM2-luc; BCMAxCD3 0.00064 nM,83.8 ± 3.4 % control
same,OPM2 cell viability (% control),OPM2-luc; BCMAxCD3 0.0032 nM,84.3 ± 3.1 % control
same,OPM2 cell viability (% control),OPM2-luc; BCMAxCD3 0.016 nM,68.4 ± 2.4 % control
same,OPM2 cell viability (% control),OPM2-luc; BCMAxCD3 0.08 nM,43.6 ± 6.4 % control
same,OPM2 cell viability (% control),OPM2-luc; BCMAxCD3 0.4 nM,3.1 ± 0.8 % control
same,OPM2 cell viability (% control),OPM2-luc; BCMAxCD3 2 nM,2.8 ± 0.8 % control
same,OPM2 cell viability (% control),OPM2-luc; BCMAxCD3 10 nM,2 ± 0.2 % control
same,OPM2 cell viability (% control),OPM2-luc; BCMAxCD3 50 nM,3.3 ± 0.3 % control
same,RPMI8226 cell viability (% control),RPMI8226; BCMAxCD3 0.00064 nM,113.2 ± 10.6 % control
same,RPMI8226 cell viability (% control),RPMI8226; BCMAxCD3 0.0032 nM,130.5 ± 19.5 % control
same,RPMI8226 cell viability (% control),RPMI8226; BCMAxCD3 0.016 nM,113.4 ± 1.3 % control
same,RPMI8226 cell viability (% control),RPMI8226; BCMAxCD3 0.08 nM,54.2 ± 16.9 % control
same,RPMI8226 cell viability (% control),RPMI8226; BCMAxCD3 0.4 nM,28.7 ± 13.6 % control
same,RPMI8226 cell viability (% control),RPMI8226; BCMAxCD3 2 nM,25.7 ± 5.5 % control
same,RPMI8226 cell viability (% control),RPMI8226; BCMAxCD3 10 nM,19.9 ± 1.1 % control
same,RPMI8226 cell viability (% control),RPMI8226; BCMAxCD3 50 nM,19.4 ± 5 % control
same,MM.1S cell viability (% control),MM.1S-luc; BCMA × CD3 0.00001 nM,80.6 ± 3.9 % control
same,MM.1S cell viability (% control),MM.1S-luc; BCMA × CD3 0.00005 nM,79.8 ± 2.9 % control
same,MM.1S cell viability (% control),MM.1S-luc; BCMA × CD3 0.00026 nM,78 ± 0.9 % control
same,MM.1S cell viability (% control),MM.1S-luc; BCMA × CD3 0.00128 nM,87.7 ± 4.4 % control
same,MM.1S cell viability (% control),MM.1S-luc; BCMA × CD3 0.0064 nM,108 ± 4.5 % control
same,MM.1S cell viability (% control),MM.1S-luc; BCMA × CD3 0.032 nM,2.5 ± 0.3 % control
same,MM.1S cell viability (% control),MM.1S-luc; BCMA × CD3 0.16 nM,1.7 ± 0.8 % control
same,MM.1S cell viability (% control),MM.1S-luc; BCMA × CD3 0.8 nM,2.4 ± 0.5 % control
same,MM.1S cell viability (% control),MM.1S-luc; BCMA × CD3 4 nM,1.3 ± 0.8 % control
